Data from US20250041390.

Tested on: thrombin-cleavable lipopeptide conjugate (TCP-stearate)

thrombin
MALDI-TOF mass spectroscopy of TCP-stearate before and after exposure to thrombin (30 minutes, 250 nM): thrombin could efficiently cleave the conjugate, evidenced by the fact that after thrombin exposure very little of the TCP-stearate conjugate remains (peak at 1046 m/z), whereas 2 new degradation peaks appear (495 and 534 m/z)
